In CN112745392A (SHANGHAI NOVAMAB BIOPHARMACEUTICALS CO LTD, dated 2021) one finds Kd and IC50 data, which are given here for two molecules.

The target in experiment [1] is T1, hPD-L1(ECD)-Fc (human, UniProt Q9NZQ7 19-238).
T1 construct: extracellular domain; also called 重组人PD-L1; not shown: Fc part not described
Description: BLI (Fortebio Red96), Protein A probes, 30℃. A general note: In BLI a coated tip is dipped into the sample, and binding shifts an interference pattern.

Experiment [2] deals with T2, hCD47(ECD)-Fc (human, UniProt Q08722 19-139).
T2 construct: extracellular domain; not shown: Fc part not described
As to the kind of experiment: BLI (Fortebio Red96), Protein A probes, 30℃.

The target in experiment [3] is T3, 人CD47 (Jurkat细胞, 高表达人CD47) (human, UniProt Q08722 19-323).
T3 construct: whole, on cells
As to the kind of experiment: flow cytometry competition against hSIRPa(ECD)-Fc-Biotin on Jurkat cells. In general terms: Flow cytometry measures light scatter and fluorescence of single cells or particles in a stream.

T3 sequence (Q08722 19-323): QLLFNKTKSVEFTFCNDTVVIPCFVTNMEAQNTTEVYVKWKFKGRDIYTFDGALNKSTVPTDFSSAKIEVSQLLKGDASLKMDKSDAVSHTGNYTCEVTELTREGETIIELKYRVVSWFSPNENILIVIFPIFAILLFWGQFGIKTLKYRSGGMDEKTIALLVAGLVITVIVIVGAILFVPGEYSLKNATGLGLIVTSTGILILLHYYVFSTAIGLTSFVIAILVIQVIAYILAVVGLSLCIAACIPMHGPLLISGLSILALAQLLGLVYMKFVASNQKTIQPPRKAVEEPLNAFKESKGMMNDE
T2 sequence (Q08722 19-139): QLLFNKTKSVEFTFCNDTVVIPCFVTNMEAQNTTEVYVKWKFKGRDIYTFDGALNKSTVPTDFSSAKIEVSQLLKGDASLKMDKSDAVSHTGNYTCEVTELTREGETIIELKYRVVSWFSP
T1 sequence (Q9NZQ7 19-238): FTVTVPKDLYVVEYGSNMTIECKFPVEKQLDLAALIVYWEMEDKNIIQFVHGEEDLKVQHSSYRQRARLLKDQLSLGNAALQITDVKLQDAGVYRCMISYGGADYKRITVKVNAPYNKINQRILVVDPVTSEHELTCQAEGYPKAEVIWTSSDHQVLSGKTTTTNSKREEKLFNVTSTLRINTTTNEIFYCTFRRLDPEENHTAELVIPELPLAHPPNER

B1: PD-L1单域抗体Fc融合蛋白(Nb-Fc) (Fc fusion)
chain: QVQLQESGGGLVQPGGSLRLSCTASGYNLSPSCMGWFRQAPGKGLEGVAFTDADGSTRYADSVKARFTISRDNSKNTLYLQMNSLRAEDTAVYYCAADFFSYCSVVFRASARDKYRGQGTLVTVSS
notes: Control; also called PD-L1 Nb-Fc; 原始PD-L1单域抗体; not shown: Fc part (and any hinge or linker) of the control fusion is not described
By Kd is commonly meant the constant that tells how readily two partners part at equilibrium. A higher Kd goes with a looser complex. B1 showed a Kd in experiment [1] of 26.5 nM.

B2: CD47单域抗体Fc融合蛋白(Nb-Fc) (Fc fusion)
chain: QVQLQESGGGLVQPGGSLRLSCAASGYAYTSDCMGWFRQTPGKGLEGVALIYTPGASTNYADSVKGRFTISQDNSKSTVYLQMNSLRAEDTAMYYCAARRGACSLRLPFFYWGQGTLVTVSS
notes: Control; also called CD47 Nb-Fc; 原始CD47单域抗体; not shown: Fc part (and any hinge or linker) of the control fusion is not described
The term IC50 denotes the midpoint of a concentration-inhibition curve. Higher therefore signals a need for much substance. For the molecule B2, binding in experiment [2] was put at a Kd of 6.13 nM. The molecule also returned an IC50 in experiment [3] of 4.49 nM.
